Laboratory results: the Human Domainome abundance scans (Beltran et al. 2025)
± gives the uncertainty stated by the source.

B1: RNA-binding E3 ubiquitin-protein ligase MEX3C, residues 325 to 391; numbered along this chain, Q5U5Q3 (parent)
chain: GQTTVQVRVPYRVVGLVVGPKGATIKRIQQQTHTYIVTPSRDKEPVFEVTGMPENVDRAREEIEMHI

Variants of: B1
Experiment: abundance fitness (aPCA) (normalised: wild type 0, dead -1); higher = more abundant; growth selection in yeast, the domain comes from the species named
Conditions: Homo sapiens

Abundance fitness of substitutions, site by site:
T3: D -0.45 ± 0.1; E -0.385 ± 0.079; G -0.519 ± 0.065; H -0.252 ± 0.11; I 0.306 ± 0.094; L -0.163 ± 0.06; M -0.556 ± 0.097; N -0.672 ± 0.16; P -0.787 ± 0.24; Q -0.258 ± 0.1; S -0.309 ± 0.066; V 0.008 ± 0.052; W -1.1 ± 0.23; Y -0.296 ± 0.18
T4: A -0.523 ± 0.12; C -0.718 ± 0.2; D -0.631 ± 0.14; E -1.06 ± 0.24; F -0.881 ± 0.26; G -0.646 ± 0.13; H -0.38 ± 0.12; I -0.622 ± 0.18; K -0.414 ± 0.072; L -0.756 ± 0.088; M -0.751 ± 0.23; N -0.812 ± 0.22; R -0.425 ± 0.078; S -0.757 ± 0.13; V -0.477 ± 0.082; W -0.832 ± 0.19
V5: A -0.34 ± 0.066; C -0.475 ± 0.11; D -1.05 ± 0.41; E -0.667 ± 0.14; F -0.363 ± 0.12; G -0.387 ± 0.053; H -0.822 ± 0.2; I 0.2 ± 0.054; K -0.18 ± 0.13; L -0.016 ± 0.079; M -0.452 ± 0.21; Q -0.294 ± 0.092; R -0.336 ± 0.062; S -0.74 ± 0.13; T -0.478 ± 0.15; W -0.83 ± 0.19
Q6: A -0.1 ± 0.072; C -0.028 ± 0.21; D -0.657 ± 0.25; E -0.218 ± 0.18; G -0.16 ± 0.055; H -0.099 ± 0.28; L -0.022 ± 0.097; M -0.151 ± 0.16; P -0.3 ± 0.15; R 0.159 ± 0.058; S -0.056 ± 0.074; T -0.247 ± 0.16; V 0.071 ± 0.14; W -0.513 ± 0.2; Y 0.269 ± 0.22
V7: A -0.731 ± 0.11; C -0.769 ± 0.18; D -0.571 ± 0.13; E -0.39 ± 0.11; F -0.124 ± 0.17; G -0.809 ± 0.069; H -0.603 ± 0.12; I 0.092 ± 0.059; K -0.47 ± 0.15; L -0.537 ± 0.092; N -0.987 ± 0.3; P -0.567 ± 0.17; Q -0.603 ± 0.23; R -0.851 ± 0.11; S -0.516 ± 0.12; T -0.802 ± 0.21; W -0.92 ± 0.21; Y -0.717 ± 0.17
R8: A -0.608 ± 0.072; C -0.675 ± 0.14; D -0.666 ± 0.14; E -0.52 ± 0.086; F -0.666 ± 0.12; G -0.763 ± 0.077; H -0.345 ± 0.13; I -0.375 ± 0.16; K 0.038 ± 0.074; L -0.601 ± 0.08; M -0.555 ± 0.1; N -0.971 ± 0.21; P -0.18 ± 0.085; Q -0.683 ± 0.14; S -0.377 ± 0.063; T -0.209 ± 0.099; V -0.66 ± 0.066; W -0.382 ± 0.088; Y -0.175 ± 0.14
V9: A -0.657 ± 0.087; D -0.834 ± 0.43; E -0.733 ± 0.12; F -0.933 ± 0.21; G -0.551 ± 0.055; H -0.928 ± 0.41; I -0.54 ± 0.092; K -0.776 ± 0.18; L -0.873 ± 0.12; M -0.641 ± 0.11; N -0.954 ± 0.5; P -0.825 ± 0.4; Q -0.993 ± 0.28; R -0.609 ± 0.07; T -0.84 ± 0.18; W -0.767 ± 0.11
P10: A -0.708 ± 0.12; C -0.655 ± 0.16; D -0.372 ± 0.14; F -1.1 ± 0.34; G -0.767 ± 0.066; H -0.825 ± 0.23; I -0.634 ± 0.17; K -0.563 ± 0.2; L -0.693 ± 0.15; M -0.885 ± 0.24; Q -0.754 ± 0.17; S -0.793 ± 0.14; T -0.611 ± 0.2; V -0.707 ± 0.11; W -0.841 ± 0.15
Y11: A 0.171 ± 0.051; E 0.402 ± 0.09; F -0.514 ± 0.12; G -0.013 ± 0.052; H 0.17 ± 0.09; K 0.369 ± 0.071; L -0.029 ± 0.057; M 0.154 ± 0.074; N -0.014 ± 0.11; P 0.128 ± 0.12; Q 0.233 ± 0.095; R 0.262 ± 0.044; S 0.236 ± 0.051; W 0.136 ± 0.067
R12: A 0.001 ± 0.059; D 0.159 ± 0.074; E 0.136 ± 0.064; F -0.11 ± 0.12; G 0.143 ± 0.046; H -0.189 ± 0.23; I -0.373 ± 0.12; K 0.063 ± 0.06; L -0.588 ± 0.099; M -0.401 ± 0.17; N 0.141 ± 0.13; P 0.054 ± 0.086; Q 0.013 ± 0.088; S 0.175 ± 0.069; T -0.201 ± 0.079; V -0.652 ± 0.11; Y -0.064 ± 0.12
V13: A -0.029 ± 0.061; C -0.024 ± 0.11; D 0.057 ± 0.086; E -0.334 ± 0.087; F 0.022 ± 0.1; G -0.153 ± 0.047; H -0.041 ± 0.15
